Data from paper PMC5995911, “Gas41 links histone acetylation to H2A.Z deposition and maintenance of embryonic stem cell identity” (Cell Discovery, 2018).

Assays:
J1 mESCs = test: RA-induced differentiation, expression of Tip60/p400 and SRCAP complex genes (qRT-PCR, Western blot); format: cell-based, mouse; settings: 1 μM RA, ES cell medium without LIF; vs day 0; technical duplicate
Procedure: mESCs were plated in 96-well ultra-low attachment round bottom plates (Corning) at 1000 cells/well in ES cell medium without LIF. Media was changed every other day before day 8 and daily thereafter. For RA treatment, mESCs seeded on gelatin-coated dishes were treated with 1 μM RA in ES cell medium without LIF. Undifferentiated mESCs cultured with LIF in gelatin-coated dishes, are considered as EB and RA day 0.
Total RNA extraction, reverse transcription and quantitative real-time PCR (qPCR) were performed as previously described. Gene expression values were calculated by normalization to Actb using the comparative CT method. Primers used in the study are listed in Supplementary Table S6.

[1] = target: Gas41 YEATS mutants with residues H71, S73, Y74 and F96 replaced with alanine; test: ITC; GAS41 YEATS (15-159) WT or mutants titrated with H3(1-34)K27ac peptide; 15 °C; 20 mM Tris-HCl pH 7.5, 500 mM NaCl, 5% glycerol, 2 mM β-mercaptoethanol; One Set of Binding Sites model
[2] = target: Gas41 YEATS domain (aa 15–159) with E95 mutated (human) (UniProt O95619); test: as above
[3] = target: Gas41 YEATS domain (aa 15–159) S73A (human) (UniProt O95619); test: as above
[4] = target: Gas41 YEATS domain (aa 15–159) Y74A (human) (UniProt O95619); test: as above

Row | fold reduction of binding against wild type [1] | fold reduction of binding against wild type [2] | fold reduction of binding against wild type [3] | fold reduction of binding against wild type [4] | Compound | change in gene expression of Tip60/p400 and SRCAP complex components (J1 mESCs)
1 | – | – | – | – | CC1=C(/C=C/C(C)=C/C=C/C(C)=C/C(=O)O)C(C)(C)CCC1 [RA, retinoic acid] | almost all the genes were downregulated
2 | 94 fold | 7 fold | 14 fold | 69 fold | H3 (1–34) K27ac peptide (from UniProt P68431 2-35) | –
